# B1: ADD1 (parent)
# chain: FASDGDSGTCSPLRHSFQKQQREK
# Variants of: B1
# Experiment: protein stability index of a GFP-peptide fusion (GPS, HEK-293T) (PSI 1-6); higher = more stable
# Conditions: c terminus: a fixed tail appended
# 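Note: lentivirally expressed fusions sorted by FACS into six bins by GFP to DsRed ratio, PSI derived from sequencing read proportions per bin multiplied by bin number.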
row,Variant,protein stability index
1,FASDGDRGTCSPLRHSFQKQQREK [S7R],4.01
2,FASDGDPGTCSPLRHSFQKQQREK [S7P],3.85
3,FASDTDSGTCSPLRHSFQKQQREK [G5T],4.37
4,FASDLDSGTCSPLRHSFQKQQREK [G5L],3.83
5,FASDKDSGTCSPLRHSFQKQQREK [G5K],3.76
6,FASDEDSGTCSPLRHSFQKQQREK [G5E],4.74
7,FASDCDSGTCSPLRHSFQKQQREK [G5C],3.57
8,FASDRDSGTCSPLRHSFQKQQREK [G5R],3.35
9,FASDWDSGTCSPLRHSFQKQQREK [G5W],1.56
10,FASDIDSGTCSPLRHSFQKQQREK [G5I],3.68
11,FASDDDSGTCSPLRHSFQKQQREK [G5D],4.29
12,FASDSDSGTCSPLRHSFQKQQREK [G5S],4.17
13,FASDADSGTCSPLRHSFQKQQREK [G5A],4.17
14,FASDQDSGTCSPLRHSFQKQQREK [G5Q],4.66
15,FASDFDSGTCSPLRHSFQKQQREK [G5F],4.01
16,FASDPDSGTCSPLRHSFQKQQREK [G5P],3.67
17,FASDYDSGTCSPLRHSFQKQQREK [G5Y],3.42
18,FASDHDSGTCSPLRHSFQKQQREK [G5H],3.43
19,FASDVDSGTCSPLRHSFQKQQREK [G5V],3.94
20,FASDNDSGTCSPLRHSFQKQQREK [G5N],4.29
21,FASDMDSGTCSPLRHSFQKQQREK [G5M],3.62
22,FASVGDSGTCSPLRHSFQKQQREK [D4V],2.44
23,FASTGDSGTCSPLRHSFQKQQREK [D4T],2.69
24,FASEGDSGTCSPLRHSFQKQQREK [D4E],4.37

row,Variant,protein stability index
1,FASFGDSGTCSPLRHSFQKQQREK [D4F],2.41
2,FASGGDSGTCSPLRHSFQKQQREK [D4G],2.07
3,FASAGDSGTCSPLRHSFQKQQREK [D4A],2.14
4,FASKGDSGTCSPLRHSFQKQQREK [D4K],2.51
5,FASPGDSGTCSPLRHSFQKQQREK [D4P],4.26
6,FASHGDSGTCSPLRHSFQKQQREK [D4H],3.08
7,FASNGDSGTCSPLRHSFQKQQREK [D4N],2.99
8,FASIGDSGTCSPLRHSFQKQQREK [D4I],2.54
9,FASLGDSGTCSPLRHSFQKQQREK [D4L],3.48
10,FASMGDSGTCSPLRHSFQKQQREK [D4M],2.54
11,FASRGDSGTCSPLRHSFQKQQREK [D4R],2.81
12,FASYGDSGTCSPLRHSFQKQQREK [D4Y],2.66
13,FASCGDSGTCSPLRHSFQKQQREK [D4C],2.72
14,FASQGDSGTCSPLRHSFQKQQREK [D4Q],3.14
15,FANDGDSGTCSPLRHSFQKQQREK [S3N],3.72
16,FAKDGDSGTCSPLRHSFQKQQREK [S3K],3.75
17,FAWDGDSGTCSPLRHSFQKQQREK [S3W],2.72
18,FAIDGDSGTCSPLRHSFQKQQREK [S3I],3.88
19,FAMDGDSGTCSPLRHSFQKQQREK [S3M],4.33
20,FATDGDSGTCSPLRHSFQKQQREK [S3T],3.99
21,FAYDGDSGTCSPLRHSFQKQQREK [S3Y],1.93
22,FADDGDSGTCSPLRHSFQKQQREK [S3D],4.03
23,FACDGDSGTCSPLRHSFQKQQREK [S3C],3.02
24,FALDGDSGTCSPLRHSFQKQQREK [S3L],3.51

row,Variant,protein stability index
1,FAVDGDSGTCSPLRHSFQKQQREK [S3V],4.09
2,FAGDGDSGTCSPLRHSFQKQQREK [S3G],3.98
3,FAQDGDSGTCSPLRHSFQKQQREK [S3Q],4.5
4,FARDGDSGTCSPLRHSFQKQQREK [S3R],3.25
5,FAHDGDSGTCSPLRHSFQKQQREK [S3H],4.05
6,FAPDGDSGTCSPLRHSFQKQQREK [S3P],2.37
7,FAFDGDSGTCSPLRHSFQKQQREK [S3F],1.92
8,FAADGDSGTCSPLRHSFQKQQREK [S3A],3.58
9,FRSDGDSGTCSPLRHSFQKQQREK [A2R],4.38
10,FPSDGDSGTCSPLRHSFQKQQREK [A2P],4.27
11,FDSDGDSGTCSPLRHSFQKQQREK [A2D],5.17
12,FTSDGDSGTCSPLRHSFQKQQREK [A2T],4.39
13,FWSDGDSGTCSPLRHSFQKQQREK [A2W],4.27
14,FNSDGDSGTCSPLRHSFQKQQREK [A2N],4.79
15,FYSDGDSGTCSPLRHSFQKQQREK [A2Y],4.33
16,FVSDGDSGTCSPLRHSFQKQQREK [A2V],3.07
17,FLSDGDSGTCSPLRHSFQKQQREK [A2L],3.7
18,FFSDGDSGTCSPLRHSFQKQQREK [A2F],4.6
19,FMSDGDSGTCSPLRHSFQKQQREK [A2M],3.86
20,FCSDGDSGTCSPLRHSFQKQQREK [A2C],3.54
21,FSSDGDSGTCSPLRHSFQKQQREK [A2S],4.47
22,FGSDGDSGTCSPLRHSFQKQQREK [A2G],4.11
23,FESDGDSGTCSPLRHSFQKQQREK [A2E],5.18
24,FHSDGDSGTCSPLRHSFQKQQREK [A2H],2.76

row,Variant,protein stability index
1,FQSDGDSGTCSPLRHSFQKQQREK [A2Q],3.61
2,FISDGDSGTCSPLRHSFQKQQREK [A2I],2.84
3,FKSDGDSGTCSPLRHSFQKQQREK [A2K],4.66
4,FASDGRSGTCSPLRHSFQKQQREK [D6R],3.44
5,FASDGLSGTCSPLRHSFQKQQREK [D6L],2.6
6,FASDGFSGTCSPLRHSFQKQQREK [D6F],1.97
7,FASDGQSGTCSPLRHSFQKQQREK [D6Q],3.17
8,FASDGWSGTCSPLRHSFQKQQREK [D6W],3.8
9,FASDGPSGTCSPLRHSFQKQQREK [D6P],3.34
10,FASDGCSGTCSPLRHSFQKQQREK [D6C],3.01
11,FASDGYSGTCSPLRHSFQKQQREK [D6Y],1.7
12,FASDGESGTCSPLRHSFQKQQREK [D6E],3.98
13,FASDGASGTCSPLRHSFQKQQREK [D6A],2.41
14,FASDGVSGTCSPLRHSFQKQQREK [D6V],3.13
15,FASDGMSGTCSPLRHSFQKQQREK [D6M],2.27
16,FASDGISGTCSPLRHSFQKQQREK [D6I],1.92
17,FASDGSSGTCSPLRHSFQKQQREK [D6S],3.12
18,FASDGTSGTCSPLRHSFQKQQREK [D6T],2.9
19,FASDGHSGTCSPLRHSFQKQQREK [D6H],2.29
20,FASDGGSGTCSPLRHSFQKQQREK [D6G],3.31
21,FASDGKSGTCSPLRHSFQKQQREK [D6K],2.8
22,FASDGNSGTCSPLRHSFQKQQREK [D6N],3.18
